The values that follow are results of earlier work, collected in article PMC4489423.

Where two headings read alike, the source gives them in different places.

For data set [1], the target named is IL-10R2 ECD (Homo sapiens) (UniProt Q08334).
Data set [2] has the same target. As to the kind of experiment: SPR.
Data set [3] has as its target IL-10R1 ECD (Homo sapiens) (UniProt Q13651). As to the kind of experiment: SPR.

Sequence of IL-10 (P22301 19-178): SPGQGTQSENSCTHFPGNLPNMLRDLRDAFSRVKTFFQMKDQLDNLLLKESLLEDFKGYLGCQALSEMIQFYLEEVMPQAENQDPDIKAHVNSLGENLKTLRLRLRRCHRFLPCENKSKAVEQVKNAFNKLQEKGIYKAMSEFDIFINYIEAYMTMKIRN
Sequence of IL-10R2 ECD (Homo sapiens) (Q08334 20-220): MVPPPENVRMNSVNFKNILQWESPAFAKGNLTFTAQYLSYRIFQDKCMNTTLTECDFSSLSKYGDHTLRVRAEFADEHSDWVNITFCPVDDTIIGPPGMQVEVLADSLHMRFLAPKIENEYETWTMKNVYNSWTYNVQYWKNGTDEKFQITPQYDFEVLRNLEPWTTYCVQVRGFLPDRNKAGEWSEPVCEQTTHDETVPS
Sequence of IL-10/IL-10R1 complex (P22301 19-178): as the sequence (P22301 19-178) above
Sequence of IL-10/IL-10R1 complex (Q13651 22-235, further chain): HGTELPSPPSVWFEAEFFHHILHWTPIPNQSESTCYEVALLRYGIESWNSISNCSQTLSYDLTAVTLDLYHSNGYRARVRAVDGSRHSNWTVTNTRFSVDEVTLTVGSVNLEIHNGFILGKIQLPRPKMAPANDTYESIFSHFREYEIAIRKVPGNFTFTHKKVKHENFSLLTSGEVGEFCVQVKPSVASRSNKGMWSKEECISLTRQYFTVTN
Sequence of IL-10R1 ECD (Homo sapiens) (Q13651 22-235): as the sequence (Q13651 22-235, further chain) above

Regarding “IL-10/IL-10R1 complex (from UniProt P22301)”, in data set [1], the Kd was 234 µM.
With IL-10 (from UniProt P22301), the Kd in data set [2] was 3000 µM; in data set [3], 0.00024 µM.
